First the molecules themselves.
T1: full-length human APLNR (amino acids 1-380 of accession number NP-005152.1) (human, UniProt P35414 1-380)
T1 sequence (looked up): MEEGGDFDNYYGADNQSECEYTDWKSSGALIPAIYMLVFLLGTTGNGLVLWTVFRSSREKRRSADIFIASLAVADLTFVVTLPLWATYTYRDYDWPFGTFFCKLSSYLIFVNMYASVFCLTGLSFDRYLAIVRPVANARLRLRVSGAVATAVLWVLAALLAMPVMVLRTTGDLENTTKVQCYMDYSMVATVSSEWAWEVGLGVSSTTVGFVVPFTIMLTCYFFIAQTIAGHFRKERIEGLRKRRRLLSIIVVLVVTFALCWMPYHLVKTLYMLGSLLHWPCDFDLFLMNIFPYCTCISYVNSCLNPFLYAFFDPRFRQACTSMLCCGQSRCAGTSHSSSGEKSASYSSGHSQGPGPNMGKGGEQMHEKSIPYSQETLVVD

B1: Apelin-13 + 5G (peptide)
peptide: QRPRLSHKGPMPFGGGGG
B2: Apelin66-75 (peptide)
peptide: RPRLSHKGPM
B3: Apelin-11 (peptide)
peptide: PRLSHKGPMPF
B4: Apelin67-76 (peptide)
peptide: PRLSHKGPMP
B5: Apelin67-75 (peptide)
peptide: PRLSHKGPM
B6: Apelin66-76 (peptide)
peptide: RPRLSHKGPMP

In the test the target is T1, full-length human APLNR (amino acids …). As to the kind of experiment: cell-based or functional assay.
For the molecule B1, the “EC50 (M), CRE assay (cAMP reporter) in HEK293/CRE-luc/hAPLNR cells” value (shortened to “EC50 (M) … in HEK293/CRE-luc/hAPLNR cells”) worked out at 1.47e-10 M.

As to B2, the “EC50 (M) … in HEK293/CRE-luc/hAPLNR cells” value was 2.17e-12 M.

In the case of B3, the “EC50 (M) … in HEK293/CRE-luc/hAPLNR cells” value was 4.38e-10 M.

As to B4, the “EC50 (M) … in HEK293/CRE-luc/hAPLNR cells” value came to 1.14e-13 M.

With B5, the “EC50 (M) … in HEK293/CRE-luc/hAPLNR cells” value came out at 3.74e-07 M.

Take B6: the “EC50 (M) … in HEK293/CRE-luc/hAPLNR cells” value amounted to 5.19e-12 M.

Source of the values: patent publication US20140275489A1 (Regeneron, published 2014).
